In this test the target is 2F5 MAb (human). The test is described as follows: ELISA. For orientation: In an ELISA, binding on a coated surface is turned into a signal by an enzyme label.

B1: 2F5–17 αIM (designed binder)
chain: VSDVPRDLEVVAATPTSLLISWPYDKWAYRYYRITYGETGGNSPVQEFTVPGSKSTATISGLKPGVDYTITVYAVTRWYWVPHYSKPISINYRT
modifications: biotin on the birA site
In the case of B1, the “fold lower affinity than the MPER peptide” value is about 10 fold.

For the origin of these results see PMC4090420 (Biochemistry, 2013).
